The values below come from article PMC8759595.

Assay [1] addresses endogenous VAPB (COS-7 cells). Description: co-immunoprecipitation (anti-FLAG) with quantified immunoblot. The conditions noted are these: COS-7 cell lysate; n = 5; parent: est. 1.0; read off a plot. (In general: Immunoblotting shows a protein as a band on a membrane.)
Assay [2] deals with endogenous VAPB (COS-7 cells). Description: co-immunoprecipitation (Myc-TRAP) with quantified immunoblot. The conditions noted are these: read off a plot; for ratio to parent: COS-7 cell lysate, at least three independent IPs, parent: est. 1.0; for other: remaining VAPB binding (% of untreated) (% of untreated): COS-7 cell lysate treated with λ-phosphatase before IP, relative to phosphatase-inhibitor sample.

Regarding “FLAG-ACBD4 (from UniProt Q8NC06) S166A; S169A; S171A”, the ratio to parent in assay [1] is 1.7.
The same measure, in the same setting: the same measure for “FLAG-ACBD4 (from UniProt Q8NC06) S166E; S169E; S171E”: 4.4.
For Myc-ACBD5 (from UniProt Q5T8D3-2) S259A, in assay [2], the ratio to parent was 0.81.
As for “Myc-ACBD5 (from UniProt Q5T8D3-2) S259A; S261A”, the ratio to parent in assay [2] came out at 0.3.
Take “Myc-ACBD5 (from UniProt Q5T8D3-2) S259A; S261A; S263A”: the ratio to parent in assay [2] was determined as 0.15.
For Myc-ACBD5 (from UniProt Q5T8D3-2) S259E, the other: remaining VAPB binding (% of untreated) (% of untreated) in assay [2] (parent: est. 4.5) worked out at 7.5.
Take “Myc-ACBD5 (from UniProt Q5T8D3-2) S259E; S261E; S263E”: in assay [2] (parent: est. 0.5), the other: remaining VAPB binding (% of untreated) (% of untreated) is 22.
Consider Myc-ACBD5 (from UniProt Q5T8D3-2) S261A, for which, in assay [2], the ratio to parent is 0.35.
In the case of “Myc-ACBD5 (from UniProt Q5T8D3-2) S261A; S263A”, in assay [2], the ratio to parent was 0.22.
For Myc-ACBD5 (from UniProt Q5T8D3-2) S261E, in assay [2] (parent: est. 4.5), the other: remaining VAPB binding (% of untreated) (% of untreated) was determined as 21.
With Myc-ACBD5 (from UniProt Q5T8D3-2) S263A, the ratio to parent in assay [2] was 0.42.
For the substance Myc-ACBD5 (from UniProt Q5T8D3-2) S263E, in assay [2] (parent: est. 4.5), the other: remaining VAPB binding (% of untreated) (% of untreated) was 8.
Regarding “Myc-ACBD5 (from UniProt Q5T8D3-2) T258A; S259A”, in assay [2], the ratio to parent was found to be 0.53.
